# The supplement of paper PMC12855868
# B1: library; numbered along this chain (parent)
# chain: MAAAGGARLLRAASAVLGGPAGRWLHHAGSRAGSSGLLRNRGPGGSAEASRSLSVSARARSSSEDKITVHFINRDGETLTTKGKVGDSLLDVVVENNLDIDGFGACEGTLACSTCHLIFEDHIYEKLDAITDEENDMLDLAYGLTDRSRLGCQICLTKSMDNMTVRVPETVADARQSIDVGKTS
# Variants of: B1
# Assay: scaled log2 fold change in cell abundance, elesclomol vs control (0 = silent mean, 1 = nonsense mean) (scaled log2 ratio); higher = higher viability under elesclomol (loss of FDX1 cuproptosis function)
# Settings: glucose 10 mM
# [1] = with ABC1 FDX1 KO, elesclomol 5 nM, 14 days
# [2] = with HEK293T FDX1 KO, elesclomol 40 nM, 11 days
# 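Further: variant abundance is its share of total variant reads in each endpoint sample, from next-generation sequencing of the integrated ORF PCR-amplified out of genomic DNA.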
Variant,scaled log2 fold change [1],scaled log2 fold change [2]
Q153G,0.48,-0.652
Q153L,0.241,-0.00657
Q153W,0.543,0.414
Q153I,0.0471,-0.458
Q153E,0.283,1.2
Q153Y,0.621,0.0427
Q153A,0.0247,-0.209
Q153T,0.212,-0.179
Q153P,0.884,0.923
Q153N,-0.0628,0.314
Q153M,-0.153,-0.595
Q153K,0.016,0.139
Q153H,0.41,-0.0151
Q153D,0.674,0.615
Q153R,-0.0672,1.14
Q153C,-0.163,-0.668
Q153F,0.595,0.361
Q153V,-0.0289,0.299
Q153S,0.243,0.372
D146E,0.138,0.321
D146P,-0.219,0.177
D146C,0.0801,0.758
D146S,-0.00471,0.0302
D146H,-0.228,-0.639

Variant,scaled log2 fold change [1],scaled log2 fold change [2]
D146I,-0.109,0.0633
D146N,-0.093,0.538
D146G,-0.311,0.974
D146K,0.0568,-0.151
D146Q,-0.0405,-0.462
D146V,-0.227,-0.76
D146W,0.114,0.978
D146F,-0.0311,0.866
D146T,0.301,-0.841
D146M,-0.332,
D146Y,0.1,0.0545
D146A,0.0826,-0.539
D146R,-0.0353,
D146L,0.0782,-0.302
L150P,1.09,0.82
L150N,0.899,0.249
L150T,0.595,-0.16
L150F,0.244,-0.211
L150K,1.24,1.51
L150G,0.757,0.513
L150I,0.2,-0.337
L150W,1.06,1.11
L150S,0.479,0.331
L150H,0.563,-0.201

Variant,scaled log2 fold change [1],scaled log2 fold change [2]
L150M,-0.0616,-0.103
L150A,0.335,0.397
L150Q,0.537,0.364
L150V,0.447,-0.147
L150D,1.09,0.982
L150C,-0.0973,0.196
L150Y,0.721,0.392
L150R,1.05,0.41
L150E,0.981,1.27
C152E,1.03,1.1
C152K,1.05,0.942
C152Y,1.15,1.64
C152T,1.06,1.22
C152P,1.08,1.13
C152H,1.12,0.972
C152N,1,2.21
C152M,1.16,0.861
C152I,1.12,1.09
C152F,1.1,2.08
C152L,1.14,1.41
C152S,1.17,1.18
C152A,1.22,1.33
C152V,1.23,1.12
C152G,1.06,1.28

Variant,scaled log2 fold change [1],scaled log2 fold change [2]
C152W,1.13,1.28
C152R,1.08,1.5
C152Q,1.01,1.18
C152D,1.1,1.19
R149V,0.231,0.529
R149N,1,1.05
R149K,0.66,-0.00324
R149M,0.689,0.499
R149E,1.13,1.11
R149Q,0.899,1.02
R149P,1.05,0.985
R149I,0.876,0.53
R149Y,0.871,0.839
R149T,1.01,0.998
R149A,0.375,0.982
R149G,0.658,0.436
R149F,0.872,1.08
R149H,0.625,0.597
R149D,1.08,0.943
R149W,1.07,1.1
R149S,0.96,0.508
R149C,0.906,1.99
R149L,0.679,0.937
I154F,0.839,0.781

Variant,scaled log2 fold change [1],scaled log2 fold change [2]
I154C,-0.101,0.0571
I154D,1.18,1.22
I154A,0.161,0.851
I154E,1.05,0.819
R147H,-0.0226,-0.215
R147N,0.171,0.904
R147P,0.35,-0.0221
R147I,0.215,-0.172
R147D,0.339,0.314
R147K,-0.354,-0.267
R147G,-0.409,0.00185
R147E,0.159,-0.255
R147V,0.177,0.544
R147S,-0.721,-0.596
R147M,0.167,-0.232
R147A,0.283,
R147W,0.275,-0.126
R147L,-1.37,-0.851
R147T,-0.344,-0.0355
R147C,-0.148,0.356
